Target: T1, APLF acidic domain (APLFAD) WT (Homo sapiens, UniProt Q8IW19 450-511)
T1 sequence: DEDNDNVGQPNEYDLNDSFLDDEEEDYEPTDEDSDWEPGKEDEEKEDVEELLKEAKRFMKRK
Assay: EMSA (native PAGE, cross-linked); APLFAD alone, no histones; Native PAGE EMSA with cross-linking; EMSA and NAQ buffer, salt and temperature not in material (general assay buffer 25 mM NaPi pH 7.0, 300 mM NaCl)
Settings: protein: recombinant; tags: TAMRA-labelled; His-GST or His-SUMO fusion for expression (TEV cleaved; SUMO may be retained); chain copies: 2; blunt

B1: 49-bp DNA, centre of 601 (dsDNA)
DNA 1: GCACCGCTTAAACGCACGTACGCGCTGTCCCCCGCGTTTTAACCGCCAA
DNA 2: TTGGCGGTTAAAACGCGGGGGACAGCGCGTACGTGCGTTTAAGCGGTGC
- binding result: no binding

Source: paper PMC9328677
